Experimental data published in the supplement of paper PMC9112550, “Optimization of the antimicrobial peptide Bac7 by deep mutational scanning” (BMC Biology, 2022).

Test system: Escherichia coli TOP10
Assay: shrunken log2 fold change of peptide-encoding DNA abundance (4.5 h post-induction vs induction); higher = less antimicrobial activity (less host growth inhibition)
Conditions: time post-induction: 4.5 h; library: site-saturation at positions 5, 18, 19, 20
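Also: peptides expressed intracellularly from a pBAD plasmid library in pooled LB shake-flask culture, induced with 0.3% L-arabinose, DNA abundance read by NGS, three biological replicates, DESeq2 with apeglm shrinkage.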

RRIRSRPPRLPRPRPRPHLQPRP
shrunken log2 fold change: 0.0575

RRIRSRPPRLPRPRPRPHMHPRP
shrunken log2 fold change: -0.202

RRIRSRPPRLPRPRPRPHNHPRP
shrunken log2 fold change: -0.576

RRIRSRPPRLPRPRPRPHNIPRP
shrunken log2 fold change: -0.211

RRIRSRPPRLPRPRPRPHPCPRP
shrunken log2 fold change: 0.0687

RRIRSRPPRLPRPRPRPHPDPRP
shrunken log2 fold change: -0.0132

RRIRSRPPRLPRPRPRPHPPPRP
shrunken log2 fold change: 0.436

RRIRSRPPRLPRPRPRPHQMPRP
shrunken log2 fold change: -0.207

RRIRSRPPRLPRPRPRPHRLPRP
shrunken log2 fold change: -0.288

RRIRSRPPRLPRPRPRPHTMPRP
shrunken log2 fold change: -0.163

RRIRSRPPRLPRPRPRPHWEPRP
shrunken log2 fold change: -0.0851

RRIRSRPPRLPRPRPRPIALPRP
shrunken log2 fold change: -0.385

RRIRSRPPRLPRPRPRPIDWPRP
shrunken log2 fold change: 0.217

RRIRSRPPRLPRPRPRPIFLPRP
shrunken log2 fold change: -0.335

RRIRSRPPRLPRPRPRPIGAPRP
shrunken log2 fold change: 0.058

RRIRSRPPRLPRPRPRPIGEPRP
shrunken log2 fold change: -0.017

RRIRSRPPRLPRPRPRPIGLPRP
shrunken log2 fold change: 0.074

RRIRSRPPRLPRPRPRPIKKPRP
shrunken log2 fold change: 0.234

RRIRSRPPRLPRPRPRPIKLPRP
shrunken log2 fold change: 0.0994

RRIRSRPPRLPRPRPRPIMGPRP
shrunken log2 fold change: -0.0258

RRIRSRPPRLPRPRPRPINSPRP
shrunken log2 fold change: 0.0337

RRIRSRPPRLPRPRPRPIPIPRP
shrunken log2 fold change: 0.159

RRIRSRPPRLPRPRPRPIPNPRP
shrunken log2 fold change: -0.432

RRIRSRPPRLPRPRPRPIPPPRP
shrunken log2 fold change: -0.0431

RRIRSRPPRLPRPRPRPIPRPRP
shrunken log2 fold change: 0.202

RRIRSRPPRLPRPRPRPIPVPRP
shrunken log2 fold change: -0.208

RRIRSRPPRLPRPRPRPIQSPRP
shrunken log2 fold change: -0.0288

RRIRSRPPRLPRPRPRPIRHPRP
shrunken log2 fold change: -0.0283

RRIRSRPPRLPRPRPRPIRIPRP
shrunken log2 fold change: -0.405

RRIRSRPPRLPRPRPRPIRRPRP
shrunken log2 fold change: 0.011

RRIRSRPPRLPRPRPRPITEPRP
shrunken log2 fold change: 0.0453

RRIRSRPPRLPRPRPRPIVHPRP
shrunken log2 fold change: -0.2

RRIRSRPPRLPRPRPRPKAFPRP
shrunken log2 fold change: -0.0206

RRIRSRPPRLPRPRPRPKAMPRP
shrunken log2 fold change: -0.148

RRIRSRPPRLPRPRPRPKCAPRP
shrunken log2 fold change: 0.0261

RRIRSRPPRLPRPRPRPKCQPRP
shrunken log2 fold change: 0.607

RRIRSRPPRLPRPRPRPKDPPRP
shrunken log2 fold change: 0.226

RRIRSRPPRLPRPRPRPKEHPRP
shrunken log2 fold change: 0.0336

RRIRSRPPRLPRPRPRPKFMPRP
shrunken log2 fold change: -0.0581

RRIRSRPPRLPRPRPRPKGHPRP
shrunken log2 fold change: -0.000921

RRIRSRPPRLPRPRPRPKGPPRP
shrunken log2 fold change: -0.00375

RRIRSRPPRLPRPRPRPKGSPRP
shrunken log2 fold change: 0.0118

RRIRSRPPRLPRPRPRPKHHPRP
shrunken log2 fold change: -0.387

RRIRSRPPRLPRPRPRPKKRPRP
shrunken log2 fold change: 0.716

RRIRSRPPRLPRPRPRPKKVPRP
shrunken log2 fold change: -0.00648

RRIRSRPPRLPRPRPRPKLCPRP
shrunken log2 fold change: 0.0502

RRIRSRPPRLPRPRPRPKNCPRP
shrunken log2 fold change: -0.149

RRIRSRPPRLPRPRPRPKNDPRP
shrunken log2 fold change: -0.372

RRIRSRPPRLPRPRPRPKNWPRP
shrunken log2 fold change: 0.176

RRIRSRPPRLPRPRPRPKPLPRP
shrunken log2 fold change: -0.107

RRIRSRPPRLPRPRPRPKQKPRP
shrunken log2 fold change: -0.000384

RRIRSRPPRLPRPRPRPKRRPRP
shrunken log2 fold change: 0.33

RRIRSRPPRLPRPRPRPKTFPRP
shrunken log2 fold change: -0.24

RRIRSRPPRLPRPRPRPKTSPRP
shrunken log2 fold change: 0.187

RRIRSRPPRLPRPRPRPKVRPRP
shrunken log2 fold change: 0.0559

RRIRSRPPRLPRPRPRPKVTPRP
shrunken log2 fold change: -0.173

RRIRSRPPRLPRPRPRPKWHPRP
shrunken log2 fold change: 0.0951

RRIRSRPPRLPRPRPRPKWPPRP
shrunken log2 fold change: 0.146

RRIRSRPPRLPRPRPRPKYHPRP
shrunken log2 fold change: -0.601

RRIRSRPPRLPRPRPRPLADPRP
shrunken log2 fold change: -0.0259

RRIRSRPPRLPRPRPRPLAYPRP
shrunken log2 fold change: 0.0208

RRIRSRPPRLPRPRPRPLCGPRP
shrunken log2 fold change: 0.0948

RRIRSRPPRLPRPRPRPLDWPRP
shrunken log2 fold change: 0.262

RRIRSRPPRLPRPRPRPLEKPRP
shrunken log2 fold change: -0.0565

RRIRSRPPRLPRPRPRPLFDPRP
shrunken log2 fold change: -0.335

RRIRSRPPRLPRPRPRPLFKPRP
shrunken log2 fold change: -0.127

RRIRSRPPRLPRPRPRPLFLPRP
shrunken log2 fold change: -0.00337

RRIRSRPPRLPRPRPRPLGIPRP
shrunken log2 fold change: -0.036

RRIRSRPPRLPRPRPRPLGRPRP
shrunken log2 fold change: 0.351

RRIRSRPPRLPRPRPRPLGSPRP
shrunken log2 fold change: 0.193

RRIRSRPPRLPRPRPRPLIQPRP
shrunken log2 fold change: -0.319

RRIRSRPPRLPRPRPRPLIYPRP
shrunken log2 fold change: -0.546

RRIRSRPPRLPRPRPRPLLKPRP
shrunken log2 fold change: 0.253

RRIRSRPPRLPRPRPRPLLPPRP
shrunken log2 fold change: 0.405

RRIRSRPPRLPRPRPRPLMFPRP
shrunken log2 fold change: -0.321

RRIRSRPPRLPRPRPRPLMIPRP
shrunken log2 fold change: -0.764

RRIRSRPPRLPRPRPRPLMWPRP
shrunken log2 fold change: 0.169

RRIRSRPPRLPRPRPRPLNAPRP
shrunken log2 fold change: 0.213

RRIRSRPPRLPRPRPRPLNFPRP
shrunken log2 fold change: -0.305

RRIRSRPPRLPRPRPRPLNHPRP
shrunken log2 fold change: -0.554

RRIRSRPPRLPRPRPRPLPCPRP
shrunken log2 fold change: -0.00277

RRIRSRPPRLPRPRPRPLPVPRP
shrunken log2 fold change: 0.0687

RRIRSRPPRLPRPRPRPLQPPRP
shrunken log2 fold change: 0.474

RRIRSRPPRLPRPRPRPLQTPRP
shrunken log2 fold change: 0.436

RRIRSRPPRLPRPRPRPLRHPRP
shrunken log2 fold change: 0.375

RRIRSRPPRLPRPRPRPLRIPRP
shrunken log2 fold change: -0.0455

RRIRSRPPRLPRPRPRPLVQPRP
shrunken log2 fold change: -0.0825

RRIRSRPPRLPRPRPRPLVTPRP
shrunken log2 fold change: 0.0214

RRIRSRPPRLPRPRPRPLWGPRP
shrunken log2 fold change: -0.00343

RRIRSRPPRLPRPRPRPLWHPRP
shrunken log2 fold change: -0.289

RRIRSRPPRLPRPRPRPLWTPRP
shrunken log2 fold change: 0.0886

RRIRSRPPRLPRPRPRPLWVPRP
shrunken log2 fold change: 0.0823

RRIRSRPPRLPRPRPRPLYNPRP
shrunken log2 fold change: -0.344

RRIRSRPPRLPRPRPRPLYSPRP
shrunken log2 fold change: -0.442

RRIRSRPPRLPRPRPRPMAAPRP
shrunken log2 fold change: 1.8

RRIRSRPPRLPRPRPRPMAPPRP
shrunken log2 fold change: 0.257

RRIRSRPPRLPRPRPRPMATPRP
shrunken log2 fold change: 0.0201

RRIRSRPPRLPRPRPRPMDEPRP
shrunken log2 fold change: 0.0216

RRIRSRPPRLPRPRPRPMDWPRP
shrunken log2 fold change: -0.0477

RRIRSRPPRLPRPRPRPMEEPRP
shrunken log2 fold change: -0.01

RRIRSRPPRLPRPRPRPMEQPRP
shrunken log2 fold change: -0.00992

RRIRSRPPRLPRPRPRPMERPRP
shrunken log2 fold change: -0.0898

RRIRSRPPRLPRPRPRPMFGPRP
shrunken log2 fold change: -0.325

RRIRSRPPRLPRPRPRPMFLPRP
shrunken log2 fold change: -0.595

RRIRSRPPRLPRPRPRPMFWPRP
shrunken log2 fold change: 0.332

RRIRSRPPRLPRPRPRPMFYPRP
shrunken log2 fold change: -0.544

RRIRSRPPRLPRPRPRPMHKPRP
shrunken log2 fold change: -0.112

RRIRSRPPRLPRPRPRPMILPRP
shrunken log2 fold change: 0.0266

RRIRSRPPRLPRPRPRPMIRPRP
shrunken log2 fold change: 0.0902
